From ChEMBL document CHEMBL3600307, “Synthesis, kinetic mechanism and docking studies of vanillin derivatives as inhibitors of mushroom tyrosinase” (Bioorg Med Chem, 2015) come the findings set out here.

Active and inactive are the calls of the source. No cut-off for these calls is given here.

Series [1] has as its target T1, Tyrosinase (Agaricus bisporus, UniProt O42713).
T1 sequence (O42713 whole entry): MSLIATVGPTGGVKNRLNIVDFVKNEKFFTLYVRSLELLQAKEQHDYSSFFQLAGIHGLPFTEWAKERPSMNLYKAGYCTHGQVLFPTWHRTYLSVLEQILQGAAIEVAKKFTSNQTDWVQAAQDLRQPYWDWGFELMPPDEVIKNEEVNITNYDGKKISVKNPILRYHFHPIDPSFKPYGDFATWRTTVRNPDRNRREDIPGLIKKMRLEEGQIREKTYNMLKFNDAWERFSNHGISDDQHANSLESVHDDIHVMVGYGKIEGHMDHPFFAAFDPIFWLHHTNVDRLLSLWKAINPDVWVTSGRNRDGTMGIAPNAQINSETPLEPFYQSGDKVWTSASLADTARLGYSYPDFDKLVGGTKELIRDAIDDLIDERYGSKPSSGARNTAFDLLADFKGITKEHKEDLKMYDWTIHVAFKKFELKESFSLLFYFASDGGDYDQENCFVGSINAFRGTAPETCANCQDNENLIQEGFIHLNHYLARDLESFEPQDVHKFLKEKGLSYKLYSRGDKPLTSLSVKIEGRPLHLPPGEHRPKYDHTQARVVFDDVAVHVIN

For the next series, the system named is HaCaT. Description: Cytotoxicity against human HaCaT cells assessed as decrease in cell viability after 24 hrs by MTT assay. It is filed as cell-based. (Formazan colour is commonly taken as a measure of viable cells.)
The target of series [2] is T1, Tyrosinase. The source holds these as a separate data set.
The test system of another series is L929. Description: Cytotoxicity against mouse L929 cells assessed as decrease in cell viability after 24 hrs by MTT assay. It is filed as cell-based. The conditions noted are these: l929, 24 h.
Series [3] has as its target T2, Tyrosinase (Agaricus bisporus) (UniProt O42713).
T2 sequence (whole entry): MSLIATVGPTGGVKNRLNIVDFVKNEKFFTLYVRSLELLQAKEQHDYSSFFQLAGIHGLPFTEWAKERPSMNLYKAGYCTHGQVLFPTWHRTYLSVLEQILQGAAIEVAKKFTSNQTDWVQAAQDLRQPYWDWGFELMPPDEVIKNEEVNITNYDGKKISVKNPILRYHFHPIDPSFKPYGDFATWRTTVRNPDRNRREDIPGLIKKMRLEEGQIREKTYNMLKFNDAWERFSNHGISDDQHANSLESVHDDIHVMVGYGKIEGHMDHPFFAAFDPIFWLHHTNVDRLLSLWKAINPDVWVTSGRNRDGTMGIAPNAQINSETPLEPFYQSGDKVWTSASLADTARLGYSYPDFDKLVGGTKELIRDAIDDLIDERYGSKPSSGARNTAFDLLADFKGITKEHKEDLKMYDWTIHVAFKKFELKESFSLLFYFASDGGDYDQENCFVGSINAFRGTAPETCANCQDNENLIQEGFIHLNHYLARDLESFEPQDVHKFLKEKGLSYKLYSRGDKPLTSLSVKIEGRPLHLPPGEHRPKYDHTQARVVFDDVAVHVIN
The conditions noted are these: 8.75 to 140 uM.

The target in series [4] is T1, Tyrosinase. This is another data set of the same source.
In series [5] the target is T2, Tyrosinase (Agaricus bisporus). Description: Reversible inhibition of mushroom tyrosinase using L-DOPA as substrate at 10.6 to 342 uM.
Substrate in series [6]: COc1cc(C=O)ccc1OC(=O)COC(=O)c1ccc(O)cc1O
The conditions noted are these: Agaricus bisporus; 144.5 uM.

Substrate in series [7]: COc1cc(C=O)ccc1OC(=O)COC(=O)c1ccc(O)cc1O
The conditions noted are these: Agaricus bisporus; 144.5 uM. The source holds these as a separate data set.

Substrate in series [8]: COc1cc(C=O)ccc1OC(=O)COC(=O)/C=C/c1ccc(Cl)cc1
The conditions noted are these: Agaricus bisporus; 16.6 uM.

Substrate in series [9]: COc1cc(C=O)ccc1OC(=O)COC(=O)/C=C/c1ccc(O)cc1
The conditions noted are these: Agaricus bisporus; 17.5 uM.

Compound in series [10]: COc1cc(C=O)ccc1OC(=O)CN1CCN(C)CC1
In words: Non competitive inhibition of mushroom tyrosinase using L-DOPA as substrate assessed as enzyme Vmax at 10.68 uM preincubated for 10 mins followed by substrate addition measured after 20 mins by Lineweaver-Burk plot analysis (reference value: […] x 10^-4 to 2.66 x 10^-4 deltaA/s). To be noted: Agaricus bisporus.

Compound in series [11]: COc1cc(C=O)ccc1OC(=O)CN1CCN(C)CC1
Description: Non competitive inhibition of mushroom tyrosinase using L-DOPA as substrate assessed as enzyme Km at 21.37 uM preincubated for 10 mins followed by substrate addition measured after 20 mins by Lineweaver-Burk plot analysis (reference value: […] to […] mM). To be noted: Agaricus bisporus.

Substrate in series [12]: COc1cc(C=O)ccc1OC(=O)COC(=O)c1ccc(O)cc1O
The conditions noted are these: Agaricus bisporus; 72.2 uM.

Substrate in series [13]: COc1cc(C=O)ccc1OC(=O)COC(=O)/C=C/c1ccc(O)cc1
The conditions noted are these: Agaricus bisporus; 8.75 uM.

Substrate in series [14]: COc1cc(C=O)ccc1OC(=O)COC(=O)/C=C/c1ccc(Cl)cc1
To be noted: Agaricus bisporus; 8.3 uM.

Substrate in series [15]: COc1cc(C=O)ccc1OC(=O)COC(=O)c1ccc(O)cc1O
To be noted: Agaricus bisporus; 289 uM.

Compound in series [16]: COc1cc(C=O)ccc1OC(=O)CN1CCN(C)CC1
In words: Non competitive inhibition of mushroom tyrosinase using L-DOPA as substrate assessed as enzyme Vmax at 21.37 uM preincubated for 10 mins followed by substrate addition measured after 20 mins by Lineweaver-Burk plot analysis (reference value: […] x 10^-4 to 2.66 x 10^-4 deltaA/s). The conditions noted are these: Agaricus bisporus.

Compound in series [17]: COc1cc(C=O)ccc1OC(=O)CN1CCN(C)CC1
Description: Non competitive inhibition of mushroom tyrosinase using L-DOPA as substrate assessed as enzyme Km at 85.5 uM preincubated for 10 mins followed by substrate addition measured after 20 mins by Lineweaver-Burk plot analysis (reference value: […] to […] mM). To be noted: Agaricus bisporus.

Substrate in series [18]: COc1cc(C=O)ccc1OC(=O)COC(=O)/C=C/c1ccc(Cl)cc1
The conditions noted are these: Agaricus bisporus; 33.3 uM.

Compound in series [19]: COc1cc(C=O)ccc1OC(=O)CN1CCN(C)CC1
In words: Non competitive inhibition of mushroom tyrosinase using L-DOPA as substrate assessed as enzyme Km at 342 uM preincubated for 10 mins followed by substrate addition measured after 20 mins by Lineweaver-Burk plot analysis (reference value: […] to […] mM). To be noted: Agaricus bisporus.

Compound in series [20]: COc1cc(C=O)ccc1OC(=O)CN1CCN(C)CC1
Description: Non competitive inhibition of mushroom tyrosinase using L-DOPA as substrate assessed as enzyme Vmax at 85.5 uM preincubated for 10 mins followed by substrate addition measured after 20 mins by Lineweaver-Burk plot analysis (reference value: […] x 10^-4 to 2.66 x 10^-4 deltaA/s). To be noted: Agaricus bisporus.

Substrate in series [21]: COc1cc(C=O)ccc1OC(=O)COC(=O)/C=C/c1ccc(Cl)cc1
To be noted: Agaricus bisporus; 16.6 uM. The source holds these as a separate data set.

Compound in series [22]: COc1cc(C=O)ccc1OC(=O)CN1CCN(C)CC1
In words: Non competitive inhibition of mushroom tyrosinase using L-DOPA as substrate assessed as enzyme Km at 42.75 uM preincubated for 10 mins followed by substrate addition measured after 20 mins by Lineweaver-Burk plot analysis (reference value: […] to […] mM). To be noted: Agaricus bisporus.

Compound in series [23]: COc1cc(C=O)ccc1OC(=O)CN1CCN(C)CC1
Description: Non competitive inhibition of mushroom tyrosinase using L-DOPA as substrate assessed as enzyme Km at 10.68 uM preincubated for 10 mins followed by substrate addition measured after 20 mins by Lineweaver-Burk plot analysis (reference value: […] to […] mM). The conditions noted are these: Agaricus bisporus.

Substrate in series [24]: COc1cc(C=O)ccc1OC(=O)COC(=O)c1ccc(O)cc1O
To be noted: Agaricus bisporus; 72.2 uM. This is another data set of the same source.

Substrate in series [25]: COc1cc(C=O)ccc1OC(=O)COC(=O)c1ccc(O)cc1O
To be noted: Agaricus bisporus; 289 uM. This is another data set of the same source.

Substrate in series [26]: COc1cc(C=O)ccc1OC(=O)COC(=O)/C=C/c1ccc(O)cc1
To be noted: Agaricus bisporus; 8.75 uM. The source holds these as a separate data set.

Compound in series [27]: COc1cc(C=O)ccc1OC(=O)CN1CCN(C)CC1
In words: Non competitive inhibition of mushroom tyrosinase using L-DOPA as substrate assessed as enzyme Vmax at 342 uM preincubated for 10 mins followed by substrate addition measured after 20 mins by Lineweaver-Burk plot analysis (reference value: […] x 10^-4 to 2.66 x 10^-4 deltaA/s). The conditions noted are these: Agaricus bisporus.

Substrate in series [28]: COc1cc(C=O)ccc1OC(=O)COC(=O)/C=C/c1ccc(O)cc1
To be noted: Agaricus bisporus; 17.5 uM. This is another data set of the same source.

Substrate in series [29]: COc1cc(C=O)ccc1OC(=O)COC(=O)/C=C/c1ccc(Cl)cc1
To be noted: Agaricus bisporus; 8.3 uM. This is another data set of the same source.

Compound in series [30]: COc1cc(C=O)ccc1OC(=O)CN1CCN(C)CC1
In words: Non competitive inhibition of mushroom tyrosinase using L-DOPA as substrate assessed as enzyme Vmax at 42.75 uM preincubated for 10 mins followed by substrate addition measured after 20 mins by Lineweaver-Burk plot analysis (reference value: […] x 10^-4 to 2.66 x 10^-4 deltaA/s). The conditions noted are these: Agaricus bisporus.

With `COc1cc(C=O)ccc1OC(=O)COC(=O)c1ccc(O)c(O)c1`, 157 µM corresponded to half-maximal inhibition against Tyrosinase [1] (IC50).

As for `COc1cc(C=O)ccc1OC(=O)COC(=O)/C=C/c1ccc(O)cc1`, inhibition on Tyrosinase [1] was half-maximal at 16.1 µM (IC50). Also, the Activity entry in the series on HaCaT and with L929 was “Dose-dependent effect” throughout. Moreover, the results for the Ki at Tyrosinase [2] and on Tyrosinase [4] were 13 µM and 53 µM, respectively. In series [3], the inhibition result is “Active”.

Consider `COc1cc(C=O)ccc1OC(=O)CN1CCN(c2ccccc2)CC1`, for which the IC50 – broadly, the concentration that inhibits the measured activity by half – against Tyrosinase [1] was found to be 101 µM.

Consider `COc1cc(C=O)ccc1OC(=O)COC(=O)c1ccc(O)cc1`, for which the IC50 against Tyrosinase [1] is 201 µM.

As for `COc1cc(C=O)ccc1OC(=O)CN1CCN(C)CC1`, at Tyrosinase [1], the IC50 was 21.6 µM. Affinity on Tyrosinase [2] was put at a Ki of 60 µM. The inhibition result in [5] is “Active”.

The molecule `COc1cc(C=O)ccc1OC(=O)COC(=O)c1cc(O)cc(O)c1` showed an IC50 at Tyrosinase [1] of 59.8 µM. In other words, the double-digit micromolar range.

At Tyrosinase [1], `COc1cc(C=O)ccc1OC(=O)COC(=O)c1ccc(O)cc1O` registered an IC50 of 42.6 µM. For the same molecule, the Ki (usually the equilibrium dissociation constant of an inhibitor or competing ligand from its target) on Tyrosinase [2] was determined as 65 µM; at Tyrosinase [4], 205 µM.

In the case of `COc1cc(C=O)ccc1OC(=O)CCl`, at Tyrosinase [1], the IC50 turned out to be 78.9 µM.

On Tyrosinase [1], `COc1cc(C=O)ccc1OC(=O)COC(=O)/C=C/c1ccc(Cl)cc1` yielded an IC50 of 30.9 µM. Moreover, the Ki amounted to 41 µM at Tyrosinase [2] and 100 µM at Tyrosinase [4].

B1: Tyrosinase (Agaricus bisporus), O42713 (protein)
chain: MSLIATVGPTGGVKNRLNIVDFVKNEKFFTLYVRSLELLQAKEQHDYSSFFQLAGIHGLPFTEWAKERPSMNLYKAGYCTHGQVLFPTWHRTYLSVLEQILQGAAIEVAKKFTSNQTDWVQAAQDLRQPYWDWGFELMPPDEVIKNEEVNITNYDGKKISVKNPILRYHFHPIDPSFKPYGDFATWRTTVRNPDRNRREDIPGLIKKMRLEEGQIREKTYNMLKFNDAWERFSNHGISDDQHANSLESVHDDIHVMVGYGKIEGHMDHPFFAAFDPIFWLHHTNVDRLLSLWKAINPDVWVTSGRNRDGTMGIAPNAQINSETPLEPFYQSGDKVWTSASLADTARLGYSYPDFDKLVGGTKELIRDAIDDLIDERYGSKPSSGARNTAFDLLADFKGITKEHKEDLKMYDWTIHVAFKKFELKESFSLLFYFASDGGDYDQENCFVGSINAFRGTAPETCANCQDNENLIQEGFIHLNHYLARDLESFEPQDVHKFLKEKGLSYKLYSRGDKPLTSLSVKIEGRPLHLPPGEHRPKYDHTQARVVFDDVAVHVIN
For B1, the Km (as a rule, the concentration of substrate that gives half-maximal velocity) was 1000 µM in series [6]; 1000 µM in series [8]; 1530 µM in series [9]; 400 µM in series [11]; 900 µM in [14]; 400 µM in series [17]. The Km in [19] was 400 µM; in series [22], 400 µM; in [23], 400 µM; in series [24], 830 µM; in series [25] it was 1250 µM; in [26], 1330 µM. The Vmax (10'-4deltaA/s) in [7] came out at 1.53; in series [10], 1.66; in [12], 2; in series [13] it was 2.22; in series [15], 1.05; in [16], 1.42. The Vmax (10'-4deltaA/s) in series [18] is 1.85; in [21], 1.96; in [28], 2; in series [29], 2.22; in series [30] it was 1.17. The Vmax (10'-5deltaA/s) was determined as 7.14 in [20] and 2.85 in [27].
